The record followed here is publication PMC2491553, “P68 RNA Helicase (DDX5) Alters Activity of Cis- and Trans-Acting Factors of the Alternative Splicing of H-Ras”.

The target of one data set is GST-FUS (FUS/TLS) (UniProt P35637 1-526). In words: EMSA; GST-FUS; Crosslinking: 1x Roeder D buffer, 1 mM ATP, 1.7 mM MgCl2, 0.1 uM heparin, 30 min 30 C; EMSA: 1 pmol 32P-RNA, native 6-8% PAGE, buffer details not in material. Conditions: protein: recombinant; tags: GST; label: 32P. A general note: A gel shift assay detects complexes by their altered migration in electrophoresis.
Sequence of GST-FUS (FUS/TLS) (P35637 whole entry): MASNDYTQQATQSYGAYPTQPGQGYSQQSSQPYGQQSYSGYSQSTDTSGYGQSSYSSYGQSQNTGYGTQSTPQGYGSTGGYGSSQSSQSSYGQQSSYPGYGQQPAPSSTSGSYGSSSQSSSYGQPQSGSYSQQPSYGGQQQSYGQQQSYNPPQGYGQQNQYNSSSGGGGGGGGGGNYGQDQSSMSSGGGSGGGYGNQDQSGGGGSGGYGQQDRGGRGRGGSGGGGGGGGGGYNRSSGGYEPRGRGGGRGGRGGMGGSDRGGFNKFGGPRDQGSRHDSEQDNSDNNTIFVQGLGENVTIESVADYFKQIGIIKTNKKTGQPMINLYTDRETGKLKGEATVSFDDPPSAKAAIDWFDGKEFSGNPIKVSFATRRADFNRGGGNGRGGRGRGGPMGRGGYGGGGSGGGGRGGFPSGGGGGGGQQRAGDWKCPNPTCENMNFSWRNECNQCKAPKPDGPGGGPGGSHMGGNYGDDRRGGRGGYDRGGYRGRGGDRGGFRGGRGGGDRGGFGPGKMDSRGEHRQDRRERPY

For another data set, the target named is T1, GST-hnRNP H (GST-H) (UniProt P31943 1-449).
T1 sequence: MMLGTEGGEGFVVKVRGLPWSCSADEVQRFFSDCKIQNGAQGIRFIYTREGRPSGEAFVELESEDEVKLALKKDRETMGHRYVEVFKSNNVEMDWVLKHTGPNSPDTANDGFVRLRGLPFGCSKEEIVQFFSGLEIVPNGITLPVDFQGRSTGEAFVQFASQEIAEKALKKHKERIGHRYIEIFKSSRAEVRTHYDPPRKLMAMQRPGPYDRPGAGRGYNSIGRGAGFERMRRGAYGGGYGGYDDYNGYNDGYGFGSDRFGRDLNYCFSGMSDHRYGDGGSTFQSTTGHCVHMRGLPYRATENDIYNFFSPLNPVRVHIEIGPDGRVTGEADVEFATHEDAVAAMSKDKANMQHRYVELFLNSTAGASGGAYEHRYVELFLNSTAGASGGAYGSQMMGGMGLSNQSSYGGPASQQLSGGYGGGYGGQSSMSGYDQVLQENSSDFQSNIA
In words: EMSA; 100-400 ng GST-H; Crosslinking: 1x Roeder D buffer, 1 mM ATP, 1.7 mM MgCl2, 0.1 uM heparin, 30 min 30 C; EMSA: 1 pmol 32P-RNA, native 6-8% PAGE, buffer details not in material. Conditions: protein: recombinant; tags: GST; label: 32P.

Take GGGACGGCAGGGCGUGAGGGAGGCGAGGGCCGGGGUCUGGGCUCACGCCC (ssRNA) [rasISS1]: the values for the binding result with GST-FUS (FUS/TLS) and with GST-hnRNP H (GST-H) were “no binding” and “binds”, respectively. As for GGGACGCCGGGGUCUGGGCUCACGCCC (ssRNA) [ΔrasISS1], the binding result with GST-hnRNP H (GST-H) is “no binding”.
